In the supplement of paper PMC9112550, “Optimization of the antimicrobial peptide Bac7 by deep mutational scanning” (BMC Biology, 2022):

Tested on: Escherichia coli TOP10
Assay: shrunken log2 fold change of peptide-encoding DNA abundance (4.5 h post-induction vs induction); higher = less antimicrobial activity (less host growth inhibition)
Settings: time post-induction: 4.5 h; library: site-saturation at positions 5, 18, 19, 20
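Note: peptides expressed intracellularly from a pBAD plasmid library in pooled LB shake-flask culture, induced with 0.3% L-arabinose, DNA abundance read by NGS, three biological replicates, DESeq2 with apeglm shrinkage.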

Row | Sequence | shrunken log2 fold change
1 | RRIRWRPPRLPRPRPRPFPYPRP | -0.44
2 | RRIRKRPPRLPRPRPRPSDDPRP | 0.154
3 | RRIRQRPPRLPRPRPRPTNWPRP | 0.146
4 | RRIRPRPPRLPRPRPRPVDTPRP | -0.592
5 | RRIRHRPPRLPRPRPRPFFQPRP | -0.202
6 | RRIRPRPPRLPRPRPRPTEFPRP | -0.268
7 | RRIRSRPPRLPRPRPRPGSHPRP | -0.104
8 | RRIRIRPPRLPRPRPRPNPQPRP | -0.287
9 | RRIRIRPPRLPRPRPRPYGCPRP | 0.0504
10 | RRIRCRPPRLPRPRPRPPNDPRP | 0.383
11 | RRIRPRPPRLPRPRPRPVGHPRP | 0.0338
12 | RRIRDRPPRLPRPRPRPPYTPRP | -0.0539
13 | RRIRKRPPRLPRPRPRPGSEPRP | 0.66
14 | RRIRQRPPRLPRPRPRPHLFPRP | 0.0199
15 | RRIRLRPPRLPRPRPRPSRMPRP | -0.241
16 | RRIRSRPPRLPRPRPRPLAEPRP | 0.502
17 | RRIRKRPPRLPRPRPRPCWMPRP | 0.446
18 | RRIRVRPPRLPRPRPRPHPSPRP | 0.168
19 | RRIRSRPPRLPRPRPRPENSPRP | -0.0239
20 | RRIRGRPPRLPRPRPRPVQYPRP | 0.118
21 | RRIRNRPPRLPRPRPRPRCQPRP | 0.297
22 | RRIRERPPRLPRPRPRPWCYPRP | -0.947
23 | RRIRSRPPRLPRPRPRPVHHPRP | 0.0874

Row | Sequence | shrunken log2 fold change
24 | RRIRGRPPRLPRPRPRPLCGPRP | 0.78
25 | RRIRFRPPRLPRPRPRPIELPRP | -0.537
26 | RRIRKRPPRLPRPRPRPEMQPRP | 1.92
27 | RRIRFRPPRLPRPRPRPSHAPRP | -0.149
28 | RRIRQRPPRLPRPRPRPYAWPRP | -0.0963
29 | RRIRKRPPRLPRPRPRPCVEPRP | 0.13
30 | RRIRLRPPRLPRPRPRPPMLPRP | -0.0338
31 | RRIRGRPPRLPRPRPRPLTIPRP | -0.155
32 | RRIRSRPPRLPRPRPRPNYDPRP | -0.247
33 | RRIRTRPPRLPRPRPRPTKMPRP | -0.355
34 | RRIRHRPPRLPRPRPRPIVPPRP | 0.0781
35 | RRIRVRPPRLPRPRPRPAGQPRP | 0.375
36 | RRIRLRPPRLPRPRPRPTWKPRP | -0.06
37 | RRIRMRPPRLPRPRPRPYIWPRP | -0.402
38 | RRIRHRPPRLPRPRPRPHTEPRP | -0.406
39 | RRIRNRPPRLPRPRPRPKNRPRP | 0.0314
40 | RRIRGRPPRLPRPRPRPNPPPRP | 0.336
41 | RRIRMRPPRLPRPRPRPNNTPRP | -0.292
42 | RRIRQRPPRLPRPRPRPDQFPRP | 0.133
43 | RRIRIRPPRLPRPRPRPLGHPRP | -0.425
44 | RRIRARPPRLPRPRPRPVCVPRP | 0.579
45 | RRIRGRPPRLPRPRPRPQVWPRP | 0.846
46 | RRIRMRPPRLPRPRPRPMQFPRP | 0.167

Row | Sequence | shrunken log2 fold change
47 | RRIRARPPRLPRPRPRPFFWPRP | 0.321
48 | RRIRHRPPRLPRPRPRPEHTPRP | -0.328
49 | RRIRYRPPRLPRPRPRPHTSPRP | -1.04
50 | RRIRSRPPRLPRPRPRPPMVPRP | 0.131
51 | RRIRHRPPRLPRPRPRPVNIPRP | -0.459
52 | RRIRRRPPRLPRPRPRPNFWPRP | 0.198
53 | RRIRPRPPRLPRPRPRPRMWPRP | 0.413
54 | RRIRQRPPRLPRPRPRPRIDPRP | 0.0868
55 | RRIRKRPPRLPRPRPRPCPEPRP | 0.196
56 | RRIRARPPRLPRPRPRPICMPRP | 0.055
57 | RRIRHRPPRLPRPRPRPICIPRP | -0.577
58 | RRIRIRPPRLPRPRPRPGTQPRP | -0.0235
59 | RRIRSRPPRLPRPRPRPQKAPRP | 0.091
60 | RRIRDRPPRLPRPRPRPFPMPRP | -0.0572
61 | RRIRPRPPRLPRPRPRPKVRPRP | 0.161
62 | RRIRSRPPRLPRPRPRPVCEPRP | 0.369
63 | RRIRGRPPRLPRPRPRPSELPRP | 0.404
64 | RRIRWRPPRLPRPRPRPGTMPRP | -0.153
65 | RRIRIRPPRLPRPRPRPWSEPRP | -0.0763
66 | RRIRTRPPRLPRPRPRPVGVPRP | 0.234
67 | RRIRVRPPRLPRPRPRPDPLPRP | -0.231
68 | RRIRTRPPRLPRPRPRPRWVPRP | 0.216
69 | RRIRMRPPRLPRPRPRPWLKPRP | -0.11

Row | Sequence | shrunken log2 fold change
70 | RRIRVRPPRLPRPRPRPPGLPRP | 0.373
71 | RRIRWRPPRLPRPRPRPLGQPRP | 0.0349
72 | RRIRGRPPRLPRPRPRPDNAPRP | 0.364
73 | RRIRFRPPRLPRPRPRPWCTPRP | -0.288
74 | RRIRHRPPRLPRPRPRPNDMPRP | -0.26
75 | RRIRERPPRLPRPRPRPQLHPRP | -0.216
76 | RRIRHRPPRLPRPRPRPLSWPRP | 0.146
77 | RRIRDRPPRLPRPRPRPCHTPRP | -0.234
78 | RRIRNRPPRLPRPRPRPIFHPRP | -0.358
79 | RRIRVRPPRLPRPRPRPQCDPRP | -0.0528
80 | RRIRMRPPRLPRPRPRPVWDPRP | -0.136
81 | RRIRKRPPRLPRPRPRPMTAPRP | 0.832
82 | RRIRNRPPRLPRPRPRPERLPRP | 0.0695
83 | RRIRIRPPRLPRPRPRPCMVPRP | -1.06
84 | RRIRLRPPRLPRPRPRPRKMPRP | 0.281
85 | RRIRHRPPRLPRPRPRPTCTPRP | 0.141
86 | RRIRYRPPRLPRPRPRPVDCPRP | -0.103
87 | RRIRYRPPRLPRPRPRPVEHPRP | -0.0137
88 | RRIRCRPPRLPRPRPRPIKRPRP | -0.628
89 | RRIRWRPPRLPRPRPRPGNMPRP | -0.11
90 | RRIRHRPPRLPRPRPRPIYTPRP | -1.35
91 | RRIRFRPPRLPRPRPRPLRSPRP | 0.259
